Reference: PMC3925087

Target: Hen eggwhite lysozyme (HEWL), control (no iodoacetamide), in 50 mM phosphate buffer at pH 12.2 (hen) (UniProt P00698)
Assay: single-molecule force spectroscopy (AFM pulling); HEWL aggregates formed after 4 days of incubation at pH 12.2, 120 uM in 50 mM phosphate buffer, on a gold coated coverslip; pulling speed 400 nm/s

Hen eggwhite lysozyme (HEWL), control (no iodoacetamide), in 50 mM phosphate buffer at pH 12.2 (from UniProt P00698 19-147) (enzyme)
average detachment force: 1000 pN
mechanical stability (detachment peak force): 300 to 2600 pN
